Each block holds one binder with its values, some of them ahead of it.
Legend:
[1] = target: T1, recombinant human PD-1-His (human, UniProt Q15116 25-167, limits assumed); experiment: binding to recombinant human PD-1-His (FIG. 8)
T1 construct: also called recombinant PD-1-His; not shown: His tag

[2] = target: T2, human PD-1 expressed on cells (human, UniProt Q15116 25-288); experiment: binding to 2D1 cells transfected with human PD-1 (FIG. 9)
T2 construct: whole, on cells; also called SpESFX-2D1
T2 sequence (Q15116 25-288): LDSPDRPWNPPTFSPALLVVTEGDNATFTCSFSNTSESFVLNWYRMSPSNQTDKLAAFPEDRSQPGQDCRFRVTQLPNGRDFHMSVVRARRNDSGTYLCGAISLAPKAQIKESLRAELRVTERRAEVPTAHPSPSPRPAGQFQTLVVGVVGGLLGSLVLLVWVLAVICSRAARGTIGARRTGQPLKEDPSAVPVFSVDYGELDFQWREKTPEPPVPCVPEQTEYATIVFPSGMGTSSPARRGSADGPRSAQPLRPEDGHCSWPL

T1 sequence (Q15116 25-167 limits assumed): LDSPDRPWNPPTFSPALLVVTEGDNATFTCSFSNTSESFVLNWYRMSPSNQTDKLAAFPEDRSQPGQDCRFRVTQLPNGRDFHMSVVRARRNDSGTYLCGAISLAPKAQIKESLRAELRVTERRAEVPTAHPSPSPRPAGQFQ

EC50 [1]: 148 pM
EC50 [2]: 3800 pM
B1: humanized anti-PD-1 antibody hPD-1-v5 (antibody, V domains shown)
VH: QVQLVESGGGLVKPGGSLRLSCAASGFAFSSNDMSWVRQAPGKGLEWVATISGGGINTYYPDSVKGRFTISRDNAKNTLYLQMNSLRAEDTAVYYCARRSNYAWFAYWGQGTPVTVSA
VL: DIQLTQSPASLAVSLGQRATISCRASESVDTYGISFMNWFQQKPGQPPKLLISPNQGSGVPARFSGSGSGTDFTLTINSLEAEDTAVYFCQQSKEVPWTFGGGTKLEIK
notes: also called version 5 (V5) antibody

EC50 [1]: 43 pM
EC50 [2]: 1100 pM
B2: chimeric anti-PD-1 antibody 2G9 (IMMU-cPD-1) (antibody, V domains shown)
VH: VKLQESGGGLVKPGGSLKLSCAASGFAFSSNDMSWVRQTPEKRLEWVATISGGGINTYYPDSVKGRFTISRDNARNTLDLQMSSLRSEDTALYYCARRSNYAWFAYWGQGTPVTVSA
VL: not shown

Source: patent publication US20180051085A1 (published 2018)
